Test results taken from patent US20240025959A1 (UNIVERSITY OF SOUTHERN CALIFORNIA, published 2024).
Blank lines part the entries; values can stand above or below the binder they belong to.

B6: ATG9A (mouse, endogenous in BMDMs) (other, UniProt Q68FE2 2-839, looked up)
chain: AQFDTEYQRLEASYSDSPPGEEDLLVHVAEGSKSPWHHIENLDLFFSRVYNLHQKNGFTCMLIGEMFELMQFLFVVAFTTFLVSCVDYDILFANKMVNHSLHPTEPVKVTLPDAFLPAQVCSARIQENGSLITILVIAGVFWIHRLIKFIYNICCYWEIHSFYLHALRIPMSALPYCTWQEVQARIVQTQKEHQICIHKRELTELDIYHRILRFQNYMVALVNKSLLPLRFRLPGLGEVVFFTRGLKYNFELILFWGPGSLFLNEWSLKAEYKRGGQRLELAQRLSNRILWIGIANFLLCPLILIWQILYAFFSYAEVLKREPGALGARCWSLYGRCYLRHFNELEHELQSRLNRGYKPASKYMNCFLSPLLTLLAKNGAFFAGSILAVLIALTIYDEDVLAVEHVLTTVTLLGVTVTVCRSFIPDQHMVFCPEQLLRVILAHIHYMPDHWQGNAHRSQTRDEFAQLFQYKAVFILEELLSPIVTPLILIFCLRPRALEIIDFFRNFTVEVVGVGDTCSFAQMDVRQHGHPQWLSGGQTEASVYQQAEDGKTELSLMHFAITNPGWQPPRESTAFLGFLKEQVQRDGAAAGLAQGGLLPENALFTSIQSLQSESEPLSLIANVVAGSSCRGPSLSRDLQGSRHRADVASALRSFSPLQPGAAPQGRVPSTMTGSGVDARTASSGSSVWEGQLQSLVLSEYASTEMSLHALYMHQLHKQQTQAEPERHVWHRRESDESGESAPEEGGEGARAPQPIPRSASYPCATPRPGAPETTALHGGFQRRYGGITDPGTVPRGPSHFSRLPLGGWAEDGQPASRHPEPVPEEGSEDELPPQVHKV
notes: Endogenous protein in mouse BMDM lysates

Tests used:
ATG9A (human) [1] = target: T1, ATG9A (human) (human, UniProt Q7Z3C6 1-839); experiment: endogenous co-IP; WT and BECN2 KO THP-1 cell lysates immunoprecipitated with ATG9A antibodies, immunoblot (FIG. 32D)
T1 construct: Transmembrane protein; co-IP from RIPA lysates; Tagged and endogenous human forms kept under one id; also called Flag-ATG9A; HA-ATG9A
T1 sequence (looked up): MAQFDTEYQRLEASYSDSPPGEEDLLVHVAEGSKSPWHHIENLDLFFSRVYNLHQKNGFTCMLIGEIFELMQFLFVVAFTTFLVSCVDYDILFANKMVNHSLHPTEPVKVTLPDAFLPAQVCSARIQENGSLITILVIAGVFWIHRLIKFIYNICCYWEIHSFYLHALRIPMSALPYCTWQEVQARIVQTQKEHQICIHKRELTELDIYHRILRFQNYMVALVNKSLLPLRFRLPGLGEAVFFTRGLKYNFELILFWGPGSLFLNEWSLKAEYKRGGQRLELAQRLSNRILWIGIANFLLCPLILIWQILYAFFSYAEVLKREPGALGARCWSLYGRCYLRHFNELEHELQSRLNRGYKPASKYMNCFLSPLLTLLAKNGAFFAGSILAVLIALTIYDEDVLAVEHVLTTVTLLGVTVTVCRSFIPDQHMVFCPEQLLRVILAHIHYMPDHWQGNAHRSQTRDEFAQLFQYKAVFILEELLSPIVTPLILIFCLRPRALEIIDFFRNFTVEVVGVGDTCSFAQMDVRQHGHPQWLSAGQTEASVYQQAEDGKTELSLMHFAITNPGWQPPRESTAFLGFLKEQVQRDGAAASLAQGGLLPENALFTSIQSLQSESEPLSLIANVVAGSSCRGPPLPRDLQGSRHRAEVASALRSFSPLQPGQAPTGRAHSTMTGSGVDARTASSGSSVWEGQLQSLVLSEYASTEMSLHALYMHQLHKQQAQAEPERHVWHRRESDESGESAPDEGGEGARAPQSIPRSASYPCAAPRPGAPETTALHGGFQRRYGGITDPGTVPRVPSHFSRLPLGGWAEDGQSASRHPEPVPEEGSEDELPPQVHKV
Experimental: (§1) Whole cell lysates obtained 24 h post-transfection or via ligand stimulation were obtained using RIPA lysis buffer and shook on ice for 15 min. The HEK293T cell lysates were immunoprecipitated with anti-Flag conjugated beads (BioLegend) at 4° C. overnight. […] The beads were washed five times with RIPA lysis buffer, and immunoprecipitates were eluted with 2×SDS loading buffer and subjected to SDS-PAGE gel electrophoresis, followed by immunoblotting. The secondary antibody (Veriblot for IP detection, HRP-conjugated) that only recognized native IgG but not denatured IgG was applied for immunoblotting of endogenous proteins in immunoprecipitates.

[2] = target: T2, Beclin 2 (human, full length) (human, UniProt A8MW95 1-431); experiment: co-IP with anti-Flag beads and immunoblot; HEK293T cells co-transfected with HA-Beclin 2 and Flag-tagged SNARE or RAB proteins (FIG. 32A)
T2 construct: All tagged and endogenous human forms are kept under this one id; the form used is named under assay; also called BECN2; Flag-Beclin 2
T2 sequence: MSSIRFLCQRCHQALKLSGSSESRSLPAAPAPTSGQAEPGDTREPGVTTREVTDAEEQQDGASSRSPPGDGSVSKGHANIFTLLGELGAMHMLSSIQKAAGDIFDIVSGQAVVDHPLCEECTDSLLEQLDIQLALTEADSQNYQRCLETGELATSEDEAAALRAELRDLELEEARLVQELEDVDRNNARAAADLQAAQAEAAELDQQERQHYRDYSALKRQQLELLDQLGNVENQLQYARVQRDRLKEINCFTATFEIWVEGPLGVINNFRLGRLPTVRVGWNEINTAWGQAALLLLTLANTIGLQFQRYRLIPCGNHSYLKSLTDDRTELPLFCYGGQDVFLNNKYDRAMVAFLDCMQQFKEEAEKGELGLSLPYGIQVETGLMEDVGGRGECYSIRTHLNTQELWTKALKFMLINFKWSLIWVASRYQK
Experimental: as §1

ATG9A (human) [3] = target: T1, ATG9A (human); experiment: co-IP with anti-Flag beads; WT, BECN2 KO and ULK1 KO HEK293T cells co-transfected with HA-ATG9A and Flag-AIM2 (FIG. 30D)
Experimental: Pearson's correlation coefficient for colocalization was analyzed using Image J Coloc 2. Graph represents mean±s.e.m. (at least 30 cells were analyzed per condition). Representative images showing the colocalization were obtained using confocal microscopy. Scale bar: 5 μm. […] Pearson's correlation coefficient for colocalization was analyzed using Image J Coloc 2. Graph represents mean±s.e.m. (at least 30 cells were analyzed per condition). Representative images showing the colocalization were obtained using confocal microscopy. Scale bar: 5 μm. […] Data are representative of at least three independent experiments. […] MVBs, multivesicular bodies.

[4] = target: B6; experiment: endogenous co-IP; BMDM lysates (untreated or LPS) immunoprecipitated with MEKK3 antibodies, immunoblot (FIG. 12D)
[5] = target: B6; experiment: endogenous co-IP; WT and Becn2 KO BMDM lysates (untreated or LPS 3 h) immunoprecipitated with ATG9A antibodies, immunoblot (FIG. 30F)
[6] = target: T2, Beclin 2 (human, full length); experiment: co-IP with anti-Flag beads and immunoblot; HEK293T cells co-transfected with HA-Beclin 2 and a Flag-tagged plasmid (FIG. 25A)
[7] = target: NLRP3 (mouse, endogenous in BMDMs) (mouse, UniProt Q8R4B8 1-1033); experiment: endogenous co-IP; WT and Becn2 KO BMDM lysates (untreated or LPS 3 h) immunoprecipitated with ATG9A antibodies, immunoblot (FIG. 30F)
NLRP3 (mouse, endogenous in BMDMs), sequence (Q8R4B8 whole entry): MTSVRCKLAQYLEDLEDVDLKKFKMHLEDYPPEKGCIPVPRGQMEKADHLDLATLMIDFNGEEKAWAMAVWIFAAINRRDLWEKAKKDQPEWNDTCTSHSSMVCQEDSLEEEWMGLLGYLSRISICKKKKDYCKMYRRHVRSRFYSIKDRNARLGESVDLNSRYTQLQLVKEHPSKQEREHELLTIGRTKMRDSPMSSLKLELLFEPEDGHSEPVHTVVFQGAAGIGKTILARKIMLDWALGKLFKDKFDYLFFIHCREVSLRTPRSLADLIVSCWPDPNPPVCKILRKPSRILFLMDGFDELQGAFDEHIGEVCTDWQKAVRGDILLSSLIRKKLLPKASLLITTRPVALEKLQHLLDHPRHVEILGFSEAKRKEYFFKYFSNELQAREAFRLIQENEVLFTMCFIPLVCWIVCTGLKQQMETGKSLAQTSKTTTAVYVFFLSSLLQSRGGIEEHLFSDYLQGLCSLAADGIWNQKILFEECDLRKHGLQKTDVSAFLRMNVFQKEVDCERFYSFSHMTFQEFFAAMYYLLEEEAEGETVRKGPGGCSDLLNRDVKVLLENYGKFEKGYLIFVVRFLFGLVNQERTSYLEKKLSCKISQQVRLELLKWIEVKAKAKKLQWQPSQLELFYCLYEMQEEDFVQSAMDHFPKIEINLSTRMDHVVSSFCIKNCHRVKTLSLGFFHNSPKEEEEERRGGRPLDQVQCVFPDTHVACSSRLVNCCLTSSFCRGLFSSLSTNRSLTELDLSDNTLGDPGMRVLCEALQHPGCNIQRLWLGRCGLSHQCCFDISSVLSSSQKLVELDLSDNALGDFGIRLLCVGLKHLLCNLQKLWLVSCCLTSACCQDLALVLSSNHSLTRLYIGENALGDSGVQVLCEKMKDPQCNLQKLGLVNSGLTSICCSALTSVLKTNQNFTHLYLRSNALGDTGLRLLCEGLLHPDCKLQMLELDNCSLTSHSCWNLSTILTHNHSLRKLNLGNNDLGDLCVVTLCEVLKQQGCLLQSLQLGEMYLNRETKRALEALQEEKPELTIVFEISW

B1: SEC22A (other, human, UniProt Q96IW7 1-307, looked up)
chain: MSMILSASVIRVRDGLPLSASTDYEQSTGMQECRKYFKMLSRKLAQLPDRCTLKTGHYNINFISSLGVSYMMLCTENYPNVLAFSFLDELQKEFITTYNMMKTNTAVRPYCFIEFDNFIQRTKQRYNNPRSLSTKINLSDMQTEIKLRPPYQISMCELGSANGVTSAFSVDCKGAGKISSAHQRLEPATLSGIVGFILSLLCGALNLIRGFHAIESLLQSDGDDFNYIIAFFLGTAACLYQCYLLVYYTGWRNVKSFLTFGLICLCNMYLYELRNLWQLFFHVTVGAFVTLQIWLRQAQGKAPDYDV
binding result (ATG9A (human) [1]): binds
binding result [2]: binds

B4: AIM2 (mouse, endogenous in BMDMs) (other, UniProt Q91VJ1 1-354, looked up)
chain: MESEYREMLLLTGLDHITEEELKRFKYFALTEFQIARSTLDVADRTELADHLIQSAGAASAVTKAINIFQKLNYMHIANALEEKKKEAERKLMTNTKKRGTQKVENRSQAENCSAASATRSDNDFKEQAATEVCPQAKPQKKQMVAEQEAIREDLQKDPLVVTVLKAINPFECETQEGRQEIFHATVATETDFFFVKVLNAQFKDKFIPKRTIKISNYLWHSNFMEVTSSSVVVDVESNHEVPNNVVKRARETPRISKLKIQPCGTIVNGLFKVQKITEEKDRVLYGIHDKTGTMEVLVLGNPSKTKCEEGDKIRLTFFEVSKNGVKIQLKSGPCSFFKVIKAAKPKTDMKSVE
binding result [5]: binds

Binder: B6
binding result [7]: binds

The remaining lines, values ahead:

binding result (ATG9A (human) [3]): binds
B2: AIM2 (human, full length) (other, UniProt O14862 1-343, looked up)
chain: MESKYKEILLLTGLDNITDEELDRFKFFLSDEFNIATGKLHTANRIQVATLMIQNAGAVSAVMKTIRIFQKLNYMLLAKRLQEEKEKVDKQYKSVTKPKPLSQAEMSPAASAAIRNDVAKQRAAPKVSPHVKPEQKQMVAQQESIREGFQKRCLPVMVLKAKKPFTFETQEGKQEMFHATVATEKEFFFVKVFNTLLKDKFIPKRIIIIARYYRHSGFLEVNSASRVLDAESDQKVNVPLNIIRKAGETPKINTLQTQPLGTIVNGLFVVQKVTEKKKNILFDLSDNTGKMEVLGVRNEDTMKCKEGDKVRLTFFTLSKNGEKLQLTSGVHSTIKVIKAKKKT
notes: also called Flag-AIM2; GFP-AIM2

binding result [4]: binds
B3: MEKK3 (mouse, endogenous in BMDMs) (enzyme, UniProt Q61084 1-626, looked up)
chain: MDEQEALDSIMKDLVALQMSRRTRLSGYETMKNKDTGHPNRQSDVRIKFEHNGERRIIAFSRPVRYEDVEHKVTTVFGQPLDLHYMNNELSILLKNQDDLDKAIDILDRSSSMKSLRILLLSQDRNHTSSSPHSGVSRQVRIKPSQSAGDINTIYQAPEPRSRHLSVSSQNPGRSSPPPGYVPERQQHIARQGSYTSINSEGEFIPETSEQCMLDPLSSAENSLSGSCQSLDRSADSPSFRKSQMSRARSFPDNRKECSDRETQLYDKGVKGGTYPRRYHVSVHHKDYNDGRRTFPRIRRHQGNLFTLVPSSRSLSTNGENMGVAVQYLDPRGRLRSADSENALTVQERNVPTKSPSAPINWRRGKLLGQGAFGRVYLCYDVDTGRELASKQVQFDPDSPETSKEVSALECEIQLLKNLQHERIVQYYGCLRDRAEKILTIFMEYMPGGSVKDQLKAYGALTESVTRKYTRQILEGMSYLHSNMIVHRDIKGANILRDSAGNVKLGDFGASKRLQTICMSGTGIRSVTGTPYWMSPEVISGEGYGRKADVWSLGCTVVEMLTEKPPWAEYEAMAAIFKIATQPTNPQLPSHISEHGRDFLRRIFVEARQRPSAEELLTHHFAQLVY
notes: Endogenous protein in mouse BMDM lysates; also called Map3k3

binding result [6]: binds
B5: caspase 1 (enzyme, human, UniProt P29466 1-404, looked up)
chain: MADKVLKEKRKLFIRSMGEGTINGLLDELLQTRVLNKEEMEKVKRENATVMDKTRALIDSVIPKGAQACQICITYICEEDSYLAGTLGLSADQTSGNYLNMQDSQGVLSSFPAPQAVQDNPAMPTSSGSEGNVKLCSLEEAQRIWKQKSAEIYPIMDKSSRTRLALIICNEEFDSIPRRTGAEVDITGMTMLLQNLGYSVDVKKNLTASDMTTELEAFAHRPEHKTSDSTFLVFMSHGIREGICGKKHSEQVPDILQLNAIFNMLNTKNCPSLKDKPKVIIIQACRGDSPGVVWFKDSVGVSGNLSLPTTEEFEDDAIKKAHIEKDFIAFCSSTPDNVSWRHPTMGSVFIGRLIEHMQEYACSCDVEEIFRKVRFSFEQPDGRAQMPTTERVTLTRCFYLFPGH
notes: also called Flag-caspase 1
